From publication PMC4132754 (Nucleic Acids Research, 2014)

What was measured:
Experiment in all cases: MST
[1] = target: T1, UPF1 Δ1C (human, UniProt Q92900-2 1-1118, del561-608)
T1 sequence: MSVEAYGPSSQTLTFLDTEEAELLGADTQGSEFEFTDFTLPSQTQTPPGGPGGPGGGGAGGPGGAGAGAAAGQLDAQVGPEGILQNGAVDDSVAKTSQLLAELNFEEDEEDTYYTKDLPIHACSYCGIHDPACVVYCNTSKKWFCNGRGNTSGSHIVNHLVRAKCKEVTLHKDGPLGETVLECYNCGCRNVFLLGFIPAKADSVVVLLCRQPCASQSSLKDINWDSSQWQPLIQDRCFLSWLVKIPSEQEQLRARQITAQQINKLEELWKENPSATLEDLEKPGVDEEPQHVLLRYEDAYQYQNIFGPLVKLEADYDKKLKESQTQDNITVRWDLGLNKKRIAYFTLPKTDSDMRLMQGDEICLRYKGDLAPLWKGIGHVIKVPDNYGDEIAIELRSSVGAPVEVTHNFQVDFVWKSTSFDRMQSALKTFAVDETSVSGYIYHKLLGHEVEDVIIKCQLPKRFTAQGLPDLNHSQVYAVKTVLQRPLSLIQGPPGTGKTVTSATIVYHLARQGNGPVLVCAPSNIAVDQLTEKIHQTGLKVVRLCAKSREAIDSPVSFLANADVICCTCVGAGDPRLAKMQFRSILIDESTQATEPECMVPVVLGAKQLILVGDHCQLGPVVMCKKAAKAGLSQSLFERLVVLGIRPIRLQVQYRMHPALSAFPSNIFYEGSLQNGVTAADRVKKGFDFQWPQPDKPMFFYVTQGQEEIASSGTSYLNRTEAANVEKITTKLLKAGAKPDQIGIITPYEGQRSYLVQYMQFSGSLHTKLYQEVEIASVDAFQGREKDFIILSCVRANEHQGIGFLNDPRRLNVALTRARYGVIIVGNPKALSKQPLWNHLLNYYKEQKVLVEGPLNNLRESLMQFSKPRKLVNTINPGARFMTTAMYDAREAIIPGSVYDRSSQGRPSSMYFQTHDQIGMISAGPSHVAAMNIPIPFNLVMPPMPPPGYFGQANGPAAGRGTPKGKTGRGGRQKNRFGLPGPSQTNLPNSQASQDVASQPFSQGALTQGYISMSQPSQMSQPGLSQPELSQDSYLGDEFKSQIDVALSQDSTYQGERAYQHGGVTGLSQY

[2] = target: T2, UPF1 ΔStalk (human, UniProt Q92900-2 1-1118, del271-433)
T2 sequence: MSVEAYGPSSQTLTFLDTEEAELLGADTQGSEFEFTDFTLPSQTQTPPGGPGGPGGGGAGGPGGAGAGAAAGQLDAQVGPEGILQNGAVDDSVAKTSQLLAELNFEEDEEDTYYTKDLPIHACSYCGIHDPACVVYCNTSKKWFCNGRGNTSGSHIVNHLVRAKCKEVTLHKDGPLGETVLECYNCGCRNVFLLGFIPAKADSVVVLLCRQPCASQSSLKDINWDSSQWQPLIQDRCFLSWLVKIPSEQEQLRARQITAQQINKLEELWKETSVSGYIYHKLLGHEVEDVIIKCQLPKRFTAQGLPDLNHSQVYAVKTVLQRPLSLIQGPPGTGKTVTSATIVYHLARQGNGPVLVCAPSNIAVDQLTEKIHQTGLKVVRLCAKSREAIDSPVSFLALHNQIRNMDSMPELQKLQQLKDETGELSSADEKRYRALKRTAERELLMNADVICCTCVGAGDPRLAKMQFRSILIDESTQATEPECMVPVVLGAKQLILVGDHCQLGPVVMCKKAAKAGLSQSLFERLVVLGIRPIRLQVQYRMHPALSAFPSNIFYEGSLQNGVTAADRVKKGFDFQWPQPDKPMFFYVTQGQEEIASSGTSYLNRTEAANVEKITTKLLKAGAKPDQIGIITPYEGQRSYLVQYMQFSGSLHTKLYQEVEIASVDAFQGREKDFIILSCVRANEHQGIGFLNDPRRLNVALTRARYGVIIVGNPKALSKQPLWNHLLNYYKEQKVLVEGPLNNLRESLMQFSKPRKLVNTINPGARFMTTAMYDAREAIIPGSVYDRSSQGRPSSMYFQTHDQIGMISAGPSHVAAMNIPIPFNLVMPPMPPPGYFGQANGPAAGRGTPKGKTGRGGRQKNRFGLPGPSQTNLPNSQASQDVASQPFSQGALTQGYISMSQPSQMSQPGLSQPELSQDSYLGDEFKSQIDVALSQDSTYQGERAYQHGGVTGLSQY

[3] = target: T3, UPF1 WT (human, UniProt Q92900-2 1-1118)
T3 sequence: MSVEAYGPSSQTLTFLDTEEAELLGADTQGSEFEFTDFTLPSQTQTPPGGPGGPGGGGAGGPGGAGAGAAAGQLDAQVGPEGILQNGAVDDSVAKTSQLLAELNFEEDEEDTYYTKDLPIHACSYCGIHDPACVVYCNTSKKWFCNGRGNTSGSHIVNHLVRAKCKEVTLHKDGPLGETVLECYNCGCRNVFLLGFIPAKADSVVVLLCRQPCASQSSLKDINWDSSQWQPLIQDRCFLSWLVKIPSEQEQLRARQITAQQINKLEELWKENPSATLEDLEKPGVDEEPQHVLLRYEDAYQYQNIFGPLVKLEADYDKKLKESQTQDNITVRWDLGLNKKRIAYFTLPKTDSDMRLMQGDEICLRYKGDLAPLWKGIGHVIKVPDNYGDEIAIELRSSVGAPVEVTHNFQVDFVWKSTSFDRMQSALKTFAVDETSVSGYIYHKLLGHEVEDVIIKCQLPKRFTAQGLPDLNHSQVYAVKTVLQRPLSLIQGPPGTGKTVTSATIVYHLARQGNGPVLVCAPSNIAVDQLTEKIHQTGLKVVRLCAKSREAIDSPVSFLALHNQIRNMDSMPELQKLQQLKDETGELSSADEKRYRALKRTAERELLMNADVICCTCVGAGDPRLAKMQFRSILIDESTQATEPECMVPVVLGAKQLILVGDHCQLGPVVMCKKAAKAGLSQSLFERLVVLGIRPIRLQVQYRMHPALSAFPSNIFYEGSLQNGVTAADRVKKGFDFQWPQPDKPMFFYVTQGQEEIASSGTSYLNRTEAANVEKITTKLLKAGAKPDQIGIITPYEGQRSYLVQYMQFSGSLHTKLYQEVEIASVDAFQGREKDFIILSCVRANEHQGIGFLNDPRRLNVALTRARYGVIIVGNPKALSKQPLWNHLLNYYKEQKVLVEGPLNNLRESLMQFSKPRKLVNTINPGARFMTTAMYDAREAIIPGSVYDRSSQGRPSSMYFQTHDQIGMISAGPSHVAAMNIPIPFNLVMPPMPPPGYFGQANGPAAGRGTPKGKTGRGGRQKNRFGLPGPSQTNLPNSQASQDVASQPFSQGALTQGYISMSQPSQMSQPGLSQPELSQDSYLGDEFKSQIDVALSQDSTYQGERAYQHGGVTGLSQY

[4] = target: SMG6 (human, UniProt Q86US8 1-1419)
SMG6, sequence (Q86US8 whole entry): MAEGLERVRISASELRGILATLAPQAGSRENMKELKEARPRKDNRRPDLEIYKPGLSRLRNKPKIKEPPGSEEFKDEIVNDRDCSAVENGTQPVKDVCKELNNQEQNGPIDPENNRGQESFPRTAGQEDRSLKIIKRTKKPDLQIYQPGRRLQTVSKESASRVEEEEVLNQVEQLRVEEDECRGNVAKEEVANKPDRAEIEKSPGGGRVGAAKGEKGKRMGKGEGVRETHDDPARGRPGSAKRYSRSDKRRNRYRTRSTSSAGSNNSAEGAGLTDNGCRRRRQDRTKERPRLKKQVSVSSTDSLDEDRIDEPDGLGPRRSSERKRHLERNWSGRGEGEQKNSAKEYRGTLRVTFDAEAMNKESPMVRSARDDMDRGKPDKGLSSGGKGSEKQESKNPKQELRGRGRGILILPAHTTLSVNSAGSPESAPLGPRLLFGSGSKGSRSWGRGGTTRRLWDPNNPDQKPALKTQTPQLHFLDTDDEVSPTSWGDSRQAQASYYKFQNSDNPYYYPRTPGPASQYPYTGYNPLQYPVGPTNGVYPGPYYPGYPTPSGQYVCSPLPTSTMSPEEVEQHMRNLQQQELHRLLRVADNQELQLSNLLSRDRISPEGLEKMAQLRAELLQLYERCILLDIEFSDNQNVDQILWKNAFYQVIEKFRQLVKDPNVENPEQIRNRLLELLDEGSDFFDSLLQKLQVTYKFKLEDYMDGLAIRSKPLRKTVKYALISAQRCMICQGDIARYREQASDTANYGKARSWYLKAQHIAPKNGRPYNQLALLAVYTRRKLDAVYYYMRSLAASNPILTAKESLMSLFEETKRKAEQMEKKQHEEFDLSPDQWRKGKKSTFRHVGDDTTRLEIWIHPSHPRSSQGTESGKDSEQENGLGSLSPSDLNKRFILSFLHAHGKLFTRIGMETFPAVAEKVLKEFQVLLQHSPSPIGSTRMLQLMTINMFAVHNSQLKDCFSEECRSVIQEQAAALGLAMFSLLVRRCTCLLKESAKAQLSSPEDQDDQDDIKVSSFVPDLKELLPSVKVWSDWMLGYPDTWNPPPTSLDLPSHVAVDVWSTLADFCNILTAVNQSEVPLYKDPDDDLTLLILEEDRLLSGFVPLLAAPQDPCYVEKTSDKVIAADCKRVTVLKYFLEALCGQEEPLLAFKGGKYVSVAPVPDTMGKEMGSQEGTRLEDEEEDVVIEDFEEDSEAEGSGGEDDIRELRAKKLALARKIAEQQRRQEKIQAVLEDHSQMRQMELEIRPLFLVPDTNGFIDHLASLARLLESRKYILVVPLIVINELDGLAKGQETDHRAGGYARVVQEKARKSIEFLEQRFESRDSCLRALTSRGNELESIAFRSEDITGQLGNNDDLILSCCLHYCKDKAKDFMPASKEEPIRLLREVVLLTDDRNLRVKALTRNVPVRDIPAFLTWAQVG

B1: U30 RNA (ssRNA)
RNA: UUUUUUUUUUUUUUUUUUUUUUUUUUUUUU
binding signal [1]: 32.2 fold lower affinity than WT
Kd [2]: 6.51 nM
Kd [3]: 1.48 nM
binding result [4]: no binding
